Assay results from publication PMC3500399.

Molecular target: SCR^AxCxA, split Renilla luciferase fusion (Arabidopsis thaliana) (UniProt Q9M384)
Test: split reporter

Sequence of UniProt Q9M384 (Q9M384 whole entry, the tested form may be a part): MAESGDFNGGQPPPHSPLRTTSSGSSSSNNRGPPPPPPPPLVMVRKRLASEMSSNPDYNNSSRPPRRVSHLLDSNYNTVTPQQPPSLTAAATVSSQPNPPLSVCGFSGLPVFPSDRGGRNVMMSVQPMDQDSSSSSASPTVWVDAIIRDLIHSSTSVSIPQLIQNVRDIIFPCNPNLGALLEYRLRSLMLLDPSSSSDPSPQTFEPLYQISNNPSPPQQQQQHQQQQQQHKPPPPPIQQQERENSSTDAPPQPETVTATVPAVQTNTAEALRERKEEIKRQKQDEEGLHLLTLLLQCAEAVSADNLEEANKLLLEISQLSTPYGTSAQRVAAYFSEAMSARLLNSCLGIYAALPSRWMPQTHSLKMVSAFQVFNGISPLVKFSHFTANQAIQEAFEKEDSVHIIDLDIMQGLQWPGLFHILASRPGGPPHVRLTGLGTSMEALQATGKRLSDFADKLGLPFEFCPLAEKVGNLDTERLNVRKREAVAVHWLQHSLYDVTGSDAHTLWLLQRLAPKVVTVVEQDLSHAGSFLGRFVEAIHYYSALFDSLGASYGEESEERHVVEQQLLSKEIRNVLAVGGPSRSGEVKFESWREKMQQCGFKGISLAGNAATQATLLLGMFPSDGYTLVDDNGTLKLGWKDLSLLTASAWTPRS

- percent of the RBR-SCR interaction (split Renilla luciferase): 11%
B1: RBR, split Renilla luciferase fusion (natural protein)
chain: MEEVQPPVTPPIEPNGKRSEASLLDICEKVLSLDGSTCDEALKLFTETKRILSASMSNIGSGTREEVERFWFAFILYSVKRLSVRKEADGLSVSGDNEFNLCQILRALKLNIVDFFKELPQFVVKAGSVLGELYGADWENRLQAKEVQANFVHLSLLSKYYKRGFREFFLTYDANAEKNSANSSTYLLDSYRFGWLLFLALRNHAFSRFKDLVTCSNGVVSILAILIIHVPCRFRNFSIQDSSRFVKKGDKGVDLVASLCKIYDASEDELRIVIDKANNLVETILKKKPSPASECQTDKLDNIDPDGLTYFEDLLEETSISTSLITLEKDYYDGKGELDERVFINEEDSLLGSGSLSAGAVNITGVKRKIDALSSPARTFISPLSPHKSPAAKTNGISGATKLAATPVSTAMTTAKWLRTVISPLLPKPSPGLEHFLKSCDRDITNDVTRRAHIILEAIFPNSSLGAQCGGGSLQAVDLMDDIWAEQRRLEACKLYYRVLEAMCKAEAQILHANNLNSLLTNERFHRCMLACSAELVLATHKTITMLFPAVLERTGITAFDLSKVIESFIRHEDSLPRELRRHLNSLEERLLESMVWEKGSSMYNSLIVARPSLALEINQLGLLAEPMPSLDAIAALINFSDGANHASSVQKHETCPGQNGGIRSPKRLCTDYRSILVERNSFTSPVKDRLLALGNVKSKMLPPPLQSAFASPTRPNPGGGGETCAETGINIFFTKINKLAAVRINGMVERLQLSQQIRESVYCFFQHVLAQRTSLLFSRHIDQIILCCFYGVAKISQMSLTFREIIYNYRKQPQCKPLVFRSVYVDALQCRRQGRIGPDHVDIITFYNEIFIPAVKPLLVELGPVRNDRAVEANNKPEGQCPGSPKVSVFPSVPDMSPKKVSAVHNVYVSPLRGSKMDALISHSTKSYYACVGESTHAYQSPSKDLSAINNRLNNSSSNRKRTLNFDAEAGMVSDSMVANSLNLQNQNQNQNGSDASSSGGAAPLKTEPTDS
